According to patent US20120100536A1 (UNIVERSITY OF TOKYO, published 2012):

Target: T1, α1-antitrypsin (UniProt P01009 25-418)
T1 construct: Co-expressed with HTRA1-V5 in HEK293 cells; Complex detected in serum-free conditioned medium by anti-V5 immunoblot; also called al-antitrypsin
Experiment: co-expression in HEK293, anti-V5 immunoblot of conditioned medium
Experimental: To assay formation of a stable complex with α1-antitrypsin, we transiently expressed α1-antitrypsin and either wild-type or mutated HTRA1 cDNAs with a VS tag at the C-terminus in HEK293 cells. These cells were grown in serum-free medium, and conditioned media were then immunoblotted with anti-V5 antibody.¹⁴

T1 sequence (P01009 25-418 limits assumed): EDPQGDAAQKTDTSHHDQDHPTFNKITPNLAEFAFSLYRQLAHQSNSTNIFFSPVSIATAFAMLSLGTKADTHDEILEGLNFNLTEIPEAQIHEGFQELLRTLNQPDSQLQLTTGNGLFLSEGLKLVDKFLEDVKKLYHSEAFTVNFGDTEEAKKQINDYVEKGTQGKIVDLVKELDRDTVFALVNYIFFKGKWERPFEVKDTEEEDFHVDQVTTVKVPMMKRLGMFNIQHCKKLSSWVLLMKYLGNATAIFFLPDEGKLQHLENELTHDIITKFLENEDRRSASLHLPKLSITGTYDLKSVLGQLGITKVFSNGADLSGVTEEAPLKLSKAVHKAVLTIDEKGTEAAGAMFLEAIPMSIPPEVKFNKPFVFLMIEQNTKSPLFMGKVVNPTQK

B1: HTRA1 R302X with a V5 tag at the C-terminus (enzyme)
chain: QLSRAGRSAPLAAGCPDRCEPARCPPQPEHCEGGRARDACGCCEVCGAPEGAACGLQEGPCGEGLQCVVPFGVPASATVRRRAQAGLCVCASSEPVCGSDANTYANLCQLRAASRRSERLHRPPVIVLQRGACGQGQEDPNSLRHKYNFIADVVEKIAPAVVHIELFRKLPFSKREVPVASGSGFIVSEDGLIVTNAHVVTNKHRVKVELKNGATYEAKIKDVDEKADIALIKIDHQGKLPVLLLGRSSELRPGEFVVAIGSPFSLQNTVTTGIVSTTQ
notes: The range 1-301 is derived from that statement; not shown: C-terminal V5 tag
Q: Does B1 bind?
A: no binding
